Laboratory results published in patent publication US20240240141A1, “RAPID AND EFFICIENT CLINICAL GRADE PIGMENT EPITHELIUM INDUCTION METHOD, KIT, AND APPLICATION” (ALLIFE MEDICINE (ZHUHAI) LIMITED, priority 2021, published 2024).

Tested on: iPSCs
Experiment: qPCR of PAX6 expression in iPSCs cultured in RDM1 with different BMP signaling pathway inhibitors
Type: cell-based
Conditions: 50 ng/mL noggin in RDM1 culture medium, day 6, Day 0 as control; compared with 2 μM Dorsomorphin or 3 μM LDN-193189 (FIG. 9)
Experimental: 1. Collect 200W cells, adding 1 ml TRIZOL, extracting RNA and determining the RNA concentration. Taking 1 μg RNA and reverse-transcribing it into cDNA. Premixing according to the system as follows in Table 1.
2. Then putting the above system into the Light cycler instrument for reaction according to the 3-step method with a number of cycles of 45. The reaction system is as follows in Table 2:
iPSCs were cultured according to the method of Example 1. 50 ng/mL noggin, 2 μM Dorsomorphin or 3 μM LDN-193189 was added to the RDM1 culture medium as three sets of parallel controls. The expression level of PAX6 in the cells on day 6 was detected.
The results are shown in FIG. 9: Day 0 was used as a control. The expression level of PAX6 was detected after 6 days of cell differentiation.

B1: noggin (protein, UniProt Q13253 28-232, looked up)
Noggin: QHYLHIRPAPSDNLPLVDLIEHPDPIFDPKEKDLNETLLRSLLGGHYDPGFMATSPPEDRPGGGGGAAGGAEDLAELDQLLRQRPSGAMPSEIKGLEFSEGLAQGKKQRLSKKLRRKLQMWLWSQTFCPVLYAWNDLGSRFWPRYVKVGSCFSKRSCSVPEGMVCKPSKSVHLTVLRWRCQRRGGQRCGWIPIQYPIISECKCSC
expression level of PAX6: the best effect and the highest expression level of PAX6
